From the supplement of paper PMC10899765

Test system: MCF10A
Assay: one-nucleolus phenotype percent effect (relative to siNT 0% and siNOL11 100%); higher = more cells with one nucleolus (ribosome biogenesis inhibition)
Conditions: 20 nM; 72 h
Method: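 After 72 h, cells were fixed and stained with Hoechst and anti-fibrillarin, and nucleoli per nucleus were counted with CellProfiler. Values are plate-adjusted percent effect for the one-nucleolus and 5+ nucleoli phenotypes, normalised to siNT (0%) and to the positive controls siNOL11 or siKIF11 (100%), as the mean of biological triplicates. Percent viability is the nuclei count relative to siNT.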

Row | Sequence | one-nucleolus phenotype percent effect [%]
1 | CAAUCAGCAAGUAUACUGCCCU [hsa-miR-34a-3p] | 83.5
2 | AGGCGGAGACUUGGGCAAUUG [hsa-miR-25-5p] | 115
3 | ACCUUGGCUCUAGACUGCUUACU [hsa-miR-212-5p] | -30.9
4 | AGUUUUGCAGGUUUGCAUCCAGC [hsa-miR-19b-1-5p] | 76.9
5 | GGCCAGCCACCAGGAGGGCUG [hsa-miR-3194-5p] | 81.9
6 | ACUCGGCGUGGCGUCGGUCGUG [hsa-miR-1307-3p] | 66.2
7 | UGGUUCUAGACUUGCCAACUA [hsa-miR-182-3p] | 97.2
8 | UGAAGGUCUACUGUGUGCCAGG [hsa-miR-493-3p] | 73
9 | UGUCCUCUAGGGCCUGCAGUCU [hsa-miR-3909] | 93.1
10 | UAUGGCACUGGUAGAAUUCACU [hsa-miR-183-5p] | 81
11 | AGCUUUUGGGAAUUCAGGUAGU [hsa-miR-3140-3p] | 91.3
12 | UGGCAGUGUCUUAGCUGGUUGU [hsa-miR-34a-5p] | 11.2
13 | AAAGGAGGAAAUAGGCAGGCCA [hsa-miR-3173-3p] | 67.7
14 | CAGGUCGUCUUGCAGGGCUUCU [hsa-miR-431-3p] | 84.4
15 | CGGCGGGGACGGCGAUUGGUC [hsa-miR-1908-5p] | 93.7
16 | AAAAGGCGGGAGAAGCCCCA [hsa-miR-4484] | 92.8
17 | AAGGAGCUUACAAUCUAGCUGGG [hsa-miR-708-5p] | 120
18 | CUCUCCCUCUUUACCCACUAG [hsa-miR-6867-3p] | -35

Row | Sequence | one-nucleolus phenotype percent effect [%]
19 | AGGAGCAGUGCCGGCCAAGGCGCC [hsa-miR-6081] | 81.7
20 | UUUGCAGUAACAGGUGUGAGCA [hsa-miR-6516-5p] | 80.3
21 | UCUCUGGGCCUGUGUCUUAGGC [hsa-miR-330-5p] | 67.1
22 | AGAUCAGAAGGUGAUUGUGGCU [hsa-miR-383-5p] | 68.7
23 | UAGGAGCUCAACAGAUGCCUGUU [hsa-miR-3139] | 84.1
24 | CAAAGGUAUUUGUGGUUUUUG [hsa-miR-548m] | 68.6
25 | UGGCAAGGAAAGAAGAGGAUCA [hsa-miR-6809-5p] | 115
26 | AGAGCAGAAGGAUGAGAU [hsa-miR-4468] | 66.8
27 | AGUGUGGCUUUCUUAGAGC [hsa-miR-644a] | 93.5
28 | ACUGGGGAGCAGAAGGAGAACC [hsa-miR-4667-5p] | 67.8
29 | AAAGGCAUAAAACCAAGACA [hsa-miR-3910] | 97
30 | CCGUCGCCGCCACCCGAGCCG [hsa-miR-1181] | -33.1
31 | GAGGGCGGGUGGAGGAGGA [hsa-miR-3141] | 72.7
32 | AGAAAGGGUGGCAAUACCUCUU [hsa-miR-5681a] | 114
33 | CAUCUGGCAUCCGUCACACAGA [hsa-miR-3126-3p] | 67
34 | CUGGCGGCUGUGUCUUCACAG [hsa-miR-6770-3p] | 110
35 | UGCCUGUCUACACUUGCUGUGC [hsa-miR-214-5p] | 93.5

Test system: MCF10A
Assay: 5+ nucleoli phenotype percent effect, hitpick validation (relative to siNT 0% and siKIF11 100%); higher = more cells with five or more nucleoli
Conditions: 20 nM; 72 h
Method: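 Primary screen hits (microRNA mimics) were re-picked and rescreened for nucleolar number in MCF10A cells (hitpick validation; percent effect relative to the siNT and siNOL11/siKIF11 controls). A secondary screen measured nucleolar rRNA biogenesis inhibition: after 72 h of transfection at 20 nM, cells were labelled 1 h with 1 mM 5-EU and nucleolar 5-EU signal was quantified, normalised to siNT (0%) and siPOLR1A (100%). Means are over n=5 (MCF10A) or n=2 (RPE-1, HeLa) biological replicates.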

Row | Sequence | 5+ nucleoli phenotype percent effect [%]
36 | UAAGGCACGCGGUGAAUGCC [hsa-miR-124-3p] | 18.1
37 | CUGCCAAUUCCAUAGGUCACAG [hsa-miR-192-3p] | -12.3
38 | AAGGAGCUCACAGUCUAUUGAG [hsa-miR-28-5p] | -2.58
39 | AGAAGGCACUAUGAGAUUUAGA [hsa-miR-605-3p] | -15.9
40 | GUUCUCCCAACGUAAGCCCAGC [hsa-miR-629-3p] | 96.3
41 | CUCUUGAGGGAAGCACUUUCUGU [hsa-miR-526b-5p] | -6.22
42 | CUUAUGCAAGAUUCCCUUCUAC [hsa-miR-491-3p] | -10.1
43 | CAAUCAGCAAGUAUACUGCCCU [hsa-miR-34a-3p] | 1.68
44 | AGGCGGAGACUUGGGCAAUUG [hsa-miR-25-5p] | -9.31
45 | ACCUUGGCUCUAGACUGCUUACU [hsa-miR-212-5p] | 91.8
46 | AGUUUUGCAGGUUUGCAUCCAGC [hsa-miR-19b-1-5p] | -19.8
47 | GGCCAGCCACCAGGAGGGCUG [hsa-miR-3194-5p] | 4.28
48 | ACUCGGCGUGGCGUCGGUCGUG [hsa-miR-1307-3p] | -13.2
49 | UGGUUCUAGACUUGCCAACUA [hsa-miR-182-3p] | -12.4
50 | UGAAGGUCUACUGUGUGCCAGG [hsa-miR-493-3p] | 4.11
51 | UGUCCUCUAGGGCCUGCAGUCU [hsa-miR-3909] | -15.4
52 | UAUGGCACUGGUAGAAUUCACU [hsa-miR-183-5p] | -0.696
53 | AGCUUUUGGGAAUUCAGGUAGU [hsa-miR-3140-3p] | -14.2
54 | UGGCAGUGUCUUAGCUGGUUGU [hsa-miR-34a-5p] | 19.4
55 | AAAGGAGGAAAUAGGCAGGCCA [hsa-miR-3173-3p] | -0.0263
56 | CAGGUCGUCUUGCAGGGCUUCU [hsa-miR-431-3p] | -15.2

Row | Sequence | 5+ nucleoli phenotype percent effect [%]
57 | CGGCGGGGACGGCGAUUGGUC [hsa-miR-1908-5p] | -7.82
58 | AAAAGGCGGGAGAAGCCCCA [hsa-miR-4484] | -14.7
59 | AAGGAGCUUACAAUCUAGCUGGG [hsa-miR-708-5p] | 1.8
60 | CUCUCCCUCUUUACCCACUAG [hsa-miR-6867-3p] | 49.1
61 | AGGAGCAGUGCCGGCCAAGGCGCC [hsa-miR-6081] | -16.9
62 | UUUGCAGUAACAGGUGUGAGCA [hsa-miR-6516-5p] | -19.1
63 | UCUCUGGGCCUGUGUCUUAGGC [hsa-miR-330-5p] | 1.29
64 | AGAUCAGAAGGUGAUUGUGGCU [hsa-miR-383-5p] | -5.3
65 | UAGGAGCUCAACAGAUGCCUGUU [hsa-miR-3139] | -8.78
66 | CAAAGGUAUUUGUGGUUUUUG [hsa-miR-548m] | -10.9
67 | UGGCAAGGAAAGAAGAGGAUCA [hsa-miR-6809-5p] | -2.51
68 | AGAGCAGAAGGAUGAGAU [hsa-miR-4468] | -14.8
69 | AGUGUGGCUUUCUUAGAGC [hsa-miR-644a] | -13.1
70 | ACUGGGGAGCAGAAGGAGAACC [hsa-miR-4667-5p] | 9.27
71 | AAAGGCAUAAAACCAAGACA [hsa-miR-3910] | -8.76
72 | CCGUCGCCGCCACCCGAGCCG [hsa-miR-1181] | 40.2
73 | GAGGGCGGGUGGAGGAGGA [hsa-miR-3141] | -4.23
74 | AGAAAGGGUGGCAAUACCUCUU [hsa-miR-5681a] | -15.4
75 | CAUCUGGCAUCCGUCACACAGA [hsa-miR-3126-3p] | -8.87
76 | CUGGCGGCUGUGUCUUCACAG [hsa-miR-6770-3p] | 1.2
77 | UGCCUGUCUACACUUGCUGUGC [hsa-miR-214-5p] | -11.5
